Reference: patent US12247238B2, “Mogroside biocatalysis methods and products” (The Coca-Cola Company, priority 2019, dated 2025)

test: β-galactosidase ONPG activity assay; format: biochemical; settings: oNPG substrate, over 30 minutes
Description: Standard β-galactosidase assays were performed at room temperature using o-nitrophenyl-β-D-galactopyranoside (ONPG, Sigma) as a substrate in […] with detection of o-nitrophenol release at 420 nm (UV-Spectra Max Spectrophotometer, Molecular Devices, USA). A typical reaction contained 50 mM sodium citrate buffer pH 5.6, 10 mM magnesium chloride and 100 mM potassium chloride with 2 mM ONPG and the desired amount of enzyme (usually […]). Partially purified AoBG (Sigma G5160, USA) was used as a positive control at a final concentration of 1 U mL−1. Vmax was calculated using the SpectraMax Plus software (Molecular Devices, USA) and when required kinetics were determined by varying the concentration of substrate and kinetic determinants calculated using Hyper™ (J. S. Easterby, Liverpool University).
Cells expressing enzyme variants grown in buffered minimal medium were induced for 72 hr with 1% methanol (refreshed every 24 hr), the culture supernatant harvested and assayed for standard ONPG activity over 30 minutes and mogroside V activity at pH 5.6, 37° C. for 72 hrs. The resultant activity data (Table 2) identified E200 and D258 as the likely catalytic pair for acid/base and nucleophilic attack of mogroside V by the A. oryzae β-glucosidase enzyme.

Row | Molecule | oNPG
1 | D258Q: A. oryzae β-galactosidase variant, D258Q (protein, UniProt Q2UCU3 19-1005, looked up, variant D258Q) Beta-galactosidase A: ASIKHRLNGFTILEHPDPAKRDLLQDIVTWDDKSLFINGERIMLFSGEVHPFRLPVPSLWLDIFHKIRALGFNCVSFYIDWALLEGKPGDYRAEGIFALEPFFDAAKEAGIYLIARPGSYINAEVSGGGFPGWLQRVNGTLRSSDEPFLKATDNYIANAAAAVAKAQITNGGPVILYQPENEYSGGCCGVKYPDADYMQYVMDQARKADIVVPFISNDASPSGHNAPGSGTGAVDIYGHQSYPLGFDCANPSVWPEGKLPDNFRTLHLEQSPSTPYSLLEFQAGAFDPWGGPGFEKCYALVNHEFSRVFYRNDLSFGVSTFNLYMTFGGTNWGNLGHPGGYTSYDYGSPITETRNVTREKYSDIKLLANFVKASPSYLTATPRNLTTGVYTDTSDLAVTPLIGDSPGSFFVVRHTDYSSQESTSYKLKLPTSAGNLTIPQLEGTLSLNGRDSKIHVVDYNVSGTNIIYSTAEVFTWKKFDGNKVLVLYGGPKEHHELAIASKSNVTIIEGSDSGIVSTRKGSSVIIGWDVSSTRRIVQVGDLRVFLLDRNSAYNYWVPELPTEGTSPGFSTSKTTASSIIVKAGYLLRGAHLDGADLHLTADFNATTPIEVIGAPTGAKNLFVNGEKASHTVDKNGIWSSEVKYAAPEIKLPGLKDLDWKYLDTLPEIKSSYDDSAWVSADLPKTKNTHRPLDTPTSLYSSDYGFHTGYLIYRGHFVANGKESEFFIRTQGGSAFGSSVWLNETYLGSWTGADYAMDGNSTYKLSQLESGKNYVITVVIDNLGLDENWTVGEETMKNPRGILSYKLSGQDASAITWKLTGNLGGEDYQDKVRGPLNEGGLYAERQGFHQPQPPSESWESGSPLEGLSKPGIGFYTAQFDLDLPKGWDVPLYFNFGNNTQAARAQLYVNGYQYGKFTGNVGPQTSFPVPEGILNYRGTNYVALSLWALESDGAKLGSFELSYTTPVLTGYGNVESPEQPKYEQRKGAY | INACTIVE
2 | E200A; E298A: A. oryzae β-galactosidase double variant E200A, E298A (protein, UniProt Q2UCU3 19-1005, looked up, variant E200A E298A) Beta-galactosidase A: ASIKHRLNGFTILEHPDPAKRDLLQDIVTWDDKSLFINGERIMLFSGEVHPFRLPVPSLWLDIFHKIRALGFNCVSFYIDWALLEGKPGDYRAEGIFALEPFFDAAKEAGIYLIARPGSYINAEVSGGGFPGWLQRVNGTLRSSDEPFLKATDNYIANAAAAVAKAQITNGGPVILYQPENAYSGGCCGVKYPDADYMQYVMDQARKADIVVPFISNDASPSGHNAPGSGTGAVDIYGHDSYPLGFDCANPSVWPEGKLPDNFRTLHLEQSPSTPYSLLAFQAGAFDPWGGPGFEKCYALVNHEFSRVFYRNDLSFGVSTFNLYMTFGGTNWGNLGHPGGYTSYDYGSPITETRNVTREKYSDIKLLANFVKASPSYLTATPRNLTTGVYTDTSDLAVTPLIGDSPGSFFVVRHTDYSSQESTSYKLKLPTSAGNLTIPQLEGTLSLNGRDSKIHVVDYNVSGTNIIYSTAEVFTWKKFDGNKVLVLYGGPKEHHELAIASKSNVTIIEGSDSGIVSTRKGSSVIIGWDVSSTRRIVQVGDLRVFLLDRNSAYNYWVPELPTEGTSPGFSTSKTTASSIIVKAGYLLRGAHLDGADLHLTADFNATTPIEVIGAPTGAKNLFVNGEKASHTVDKNGIWSSEVKYAAPEIKLPGLKDLDWKYLDTLPEIKSSYDDSAWVSADLPKTKNTHRPLDTPTSLYSSDYGFHTGYLIYRGHFVANGKESEFFIRTQGGSAFGSSVWLNETYLGSWTGADYAMDGNSTYKLSQLESGKNYVITVVIDNLGLDENWTVGEETMKNPRGILSYKLSGQDASAITWKLTGNLGGEDYQDKVRGPLNEGGLYAERQGFHQPQPPSESWESGSPLEGLSKPGIGFYTAQFDLDLPKGWDVPLYFNFGNNTQAARAQLYVNGYQYGKFTGNVGPQTSFPVPEGILNYRGTNYVALSLWALESDGAKLGSFELSYTTPVLTGYGNVESPEQPKYEQRKGAY | INACTIVE
3 | E200Q; E298Q: A. oryzae β-galactosidase double variant E200Q, E298Q (protein, UniProt Q2UCU3 19-1005, looked up, variant E200Q E298Q) Beta-galactosidase A: ASIKHRLNGFTILEHPDPAKRDLLQDIVTWDDKSLFINGERIMLFSGEVHPFRLPVPSLWLDIFHKIRALGFNCVSFYIDWALLEGKPGDYRAEGIFALEPFFDAAKEAGIYLIARPGSYINAEVSGGGFPGWLQRVNGTLRSSDEPFLKATDNYIANAAAAVAKAQITNGGPVILYQPENQYSGGCCGVKYPDADYMQYVMDQARKADIVVPFISNDASPSGHNAPGSGTGAVDIYGHDSYPLGFDCANPSVWPEGKLPDNFRTLHLEQSPSTPYSLLQFQAGAFDPWGGPGFEKCYALVNHEFSRVFYRNDLSFGVSTFNLYMTFGGTNWGNLGHPGGYTSYDYGSPITETRNVTREKYSDIKLLANFVKASPSYLTATPRNLTTGVYTDTSDLAVTPLIGDSPGSFFVVRHTDYSSQESTSYKLKLPTSAGNLTIPQLEGTLSLNGRDSKIHVVDYNVSGTNIIYSTAEVFTWKKFDGNKVLVLYGGPKEHHELAIASKSNVTIIEGSDSGIVSTRKGSSVIIGWDVSSTRRIVQVGDLRVFLLDRNSAYNYWVPELPTEGTSPGFSTSKTTASSIIVKAGYLLRGAHLDGADLHLTADFNATTPIEVIGAPTGAKNLFVNGEKASHTVDKNGIWSSEVKYAAPEIKLPGLKDLDWKYLDTLPEIKSSYDDSAWVSADLPKTKNTHRPLDTPTSLYSSDYGFHTGYLIYRGHFVANGKESEFFIRTQGGSAFGSSVWLNETYLGSWTGADYAMDGNSTYKLSQLESGKNYVITVVIDNLGLDENWTVGEETMKNPRGILSYKLSGQDASAITWKLTGNLGGEDYQDKVRGPLNEGGLYAERQGFHQPQPPSESWESGSPLEGLSKPGIGFYTAQFDLDLPKGWDVPLYFNFGNNTQAARAQLYVNGYQYGKFTGNVGPQTSFPVPEGILNYRGTNYVALSLWALESDGAKLGSFELSYTTPVLTGYGNVESPEQPKYEQRKGAY | INACTIVE

Now from value to molecule:

Row | oNPG | Molecule
4 | INACTIVE | E200A: A. oryzae β-galactosidase variant, E200A (protein, UniProt Q2UCU3 19-1005, looked up, variant E200A) Beta-galactosidase A: ASIKHRLNGFTILEHPDPAKRDLLQDIVTWDDKSLFINGERIMLFSGEVHPFRLPVPSLWLDIFHKIRALGFNCVSFYIDWALLEGKPGDYRAEGIFALEPFFDAAKEAGIYLIARPGSYINAEVSGGGFPGWLQRVNGTLRSSDEPFLKATDNYIANAAAAVAKAQITNGGPVILYQPENAYSGGCCGVKYPDADYMQYVMDQARKADIVVPFISNDASPSGHNAPGSGTGAVDIYGHDSYPLGFDCANPSVWPEGKLPDNFRTLHLEQSPSTPYSLLEFQAGAFDPWGGPGFEKCYALVNHEFSRVFYRNDLSFGVSTFNLYMTFGGTNWGNLGHPGGYTSYDYGSPITETRNVTREKYSDIKLLANFVKASPSYLTATPRNLTTGVYTDTSDLAVTPLIGDSPGSFFVVRHTDYSSQESTSYKLKLPTSAGNLTIPQLEGTLSLNGRDSKIHVVDYNVSGTNIIYSTAEVFTWKKFDGNKVLVLYGGPKEHHELAIASKSNVTIIEGSDSGIVSTRKGSSVIIGWDVSSTRRIVQVGDLRVFLLDRNSAYNYWVPELPTEGTSPGFSTSKTTASSIIVKAGYLLRGAHLDGADLHLTADFNATTPIEVIGAPTGAKNLFVNGEKASHTVDKNGIWSSEVKYAAPEIKLPGLKDLDWKYLDTLPEIKSSYDDSAWVSADLPKTKNTHRPLDTPTSLYSSDYGFHTGYLIYRGHFVANGKESEFFIRTQGGSAFGSSVWLNETYLGSWTGADYAMDGNSTYKLSQLESGKNYVITVVIDNLGLDENWTVGEETMKNPRGILSYKLSGQDASAITWKLTGNLGGEDYQDKVRGPLNEGGLYAERQGFHQPQPPSESWESGSPLEGLSKPGIGFYTAQFDLDLPKGWDVPLYFNFGNNTQAARAQLYVNGYQYGKFTGNVGPQTSFPVPEGILNYRGTNYVALSLWALESDGAKLGSFELSYTTPVLTGYGNVESPEQPKYEQRKGAY
5 | INACTIVE | D258A: A. oryzae β-galactosidase variant, D258A (protein, UniProt Q2UCU3 19-1005, looked up, variant D258A) Beta-galactosidase A: ASIKHRLNGFTILEHPDPAKRDLLQDIVTWDDKSLFINGERIMLFSGEVHPFRLPVPSLWLDIFHKIRALGFNCVSFYIDWALLEGKPGDYRAEGIFALEPFFDAAKEAGIYLIARPGSYINAEVSGGGFPGWLQRVNGTLRSSDEPFLKATDNYIANAAAAVAKAQITNGGPVILYQPENEYSGGCCGVKYPDADYMQYVMDQARKADIVVPFISNDASPSGHNAPGSGTGAVDIYGHASYPLGFDCANPSVWPEGKLPDNFRTLHLEQSPSTPYSLLEFQAGAFDPWGGPGFEKCYALVNHEFSRVFYRNDLSFGVSTFNLYMTFGGTNWGNLGHPGGYTSYDYGSPITETRNVTREKYSDIKLLANFVKASPSYLTATPRNLTTGVYTDTSDLAVTPLIGDSPGSFFVVRHTDYSSQESTSYKLKLPTSAGNLTIPQLEGTLSLNGRDSKIHVVDYNVSGTNIIYSTAEVFTWKKFDGNKVLVLYGGPKEHHELAIASKSNVTIIEGSDSGIVSTRKGSSVIIGWDVSSTRRIVQVGDLRVFLLDRNSAYNYWVPELPTEGTSPGFSTSKTTASSIIVKAGYLLRGAHLDGADLHLTADFNATTPIEVIGAPTGAKNLFVNGEKASHTVDKNGIWSSEVKYAAPEIKLPGLKDLDWKYLDTLPEIKSSYDDSAWVSADLPKTKNTHRPLDTPTSLYSSDYGFHTGYLIYRGHFVANGKESEFFIRTQGGSAFGSSVWLNETYLGSWTGADYAMDGNSTYKLSQLESGKNYVITVVIDNLGLDENWTVGEETMKNPRGILSYKLSGQDASAITWKLTGNLGGEDYQDKVRGPLNEGGLYAERQGFHQPQPPSESWESGSPLEGLSKPGIGFYTAQFDLDLPKGWDVPLYFNFGNNTQAARAQLYVNGYQYGKFTGNVGPQTSFPVPEGILNYRGTNYVALSLWALESDGAKLGSFELSYTTPVLTGYGNVESPEQPKYEQRKGAY
